Holding throughout (assay): SEC; E. coli-expressed and purified human HtrA1- to 4-PD/PDZ constructs, purified as homotrimers by size-exclusion chromatography; conditions not shown (SI Appendix)
Series [1] deals with human HtrA2-PD/PDZ (protease domain and PDZ domain) (human).
Series [2] deals with human HtrA1-PD/PDZ (N domain-deleted HtrA1, protease domain and PDZ domain) (human).
Series [3] deals with the molecule itself.

In series [1], “human HtrA2-PD/PDZ (protease domain and PDZ domain) (domain or fragment)” came in with a stoichiometry N of 3.
On to “human HtrA1-PD/PDZ (N domain-deleted HtrA1, protease domain and PDZ domain) (domain or fragment)”, for which the stoichiometry N in series [2] was found to be 3.

B1: human HtrA3-PD/PDZ (protease domain and PDZ domain) (domain or fragment)
chain: GLHQLSSPRYKFNFIADVVEKIAPAVVHIELFLRHPLFGRNVPLSSGSGFIMSEAGLIITNAHVVSSNSAAPGRQQLKVQLQNGDSYEATIKDIDKKSDIATIKIHPKKKLPVLLLGHSADLRPGEFVVAIGSPFALQNTVTTGIVSTAQREGRELGLRDSDMDYIQTDAIINYGNSGGPLVNLDGEVIGINTLKVTAGISFAIPSDRITRFLTEFQDKQIKDWKKRFIGIRMRTITPSLVDELKASNPDFPEVSSGIYVQEVAPNSPSQRGGIQDGDIIVKVNGRPLVDSSELQEAVLTESPLLLEVRRGNDDLLFSIAPEVVM
As to B1, the “stoichiometry N” value in series [3] turned out to be 3.

B2: human HtrA4-PD/PDZ (protease domain and PDZ domain) (domain or fragment)
chain: TGTRSAGPLRRNYNFIAAVVEKVAPSVVHVQLWGRLLHGSRLVPVYSGSGFIVSEDGLIITNAHVVRNQQWIEVVLQNGARYEAVVKDIDLKLDLAVIKIESNAELPVLMLGRSSDLRAGEFVVALGSPFSLQNTATAGIVSTKQRGGKELGMKDSDMDYVQIDATINYGNSGGPLVNLDGDVIGVNSLRVTDGISFAIPSDRVRQFLAEYHEHQMKGKAFSNKKYLGLQMLSLTVPLSEELKMHYPDFPDVSSGVYVCKVVEGTAAQSSGLRDHDVIVNINGKPITTTTDVVKALDSDSLSMAVLRGKDNLLLTVIPETIN
Consider B2, for which the “stoichiometry N” value in series [3] stood at 3.

As a reminder, the stoichiometry N is the number of molecules, sites or subunits per partner or assembly.

The values above are taken from article PMC7211935, “Development of a therapeutic anti-HtrA1 antibody and the identification of DKK3 as a pharmacodynamic biomarker in geographic atrophy” (Proceedings of the National Academy of Sciences of the …, 2020).
